Where a chain is given by its changes, count along the chain named. In names and notes the source's numbering stands. Read-outs that look alike come from different tables or passages of the source.

The target of one data set is T1, CT domain of yeast ACC (Saccharomyces cerevisiae, UniProt Q00955).
T1 construct: made in house; host or cells: E. coli (pET24d)
As to the kind of experiment: CT domain enzyme kinetic assay, inhibition (decarboxylation of malonyl-CoA coupled to citrate synthase and malate dehydrogenase). It counts as biochemical, S. cerevisiae.

The subject of the next data set is mammalian ACC2. The note with it: cited from earlier work.
A further data set relates to ACC. To be noted: cited from earlier work.
Data set [1] has as its target T2, L1705I, V1967I and L1705I/V1967I mutants of the yeast CT domain (Saccharomyces cerevisiae, UniProt Q00955).
T2 construct: fused on or other part: C-terminal His-tag (pET24d)
As to the kind of experiment: CT domain enzyme kinetic assay, inhibition of mutant CT domains. The format is biochemical, S. cerevisiae. To be noted: single and double mutants; malonyl-CoA 750 μM, mutants at 20 μM. An excerpt: (§1) Enzyme kinetic assays. The CT domain can catalyze the decarboxylation of malonyl-CoA to produce acetyl-CoA in the presence of biotin methyl ester. The kinetic assays monitored the production of acetyl-CoA by coupling it to citrate synthase and malate dehydronase, which ultimately lead to the reduction of NAD^+ (Guchhait et al., 1974, J. Biol. Chem. […]). Mutations in the active site were designed based on the structural information. The mutants were made with the QuikChange kit (Stratagene) and sequenced for confirmation. They were purified and assayed kinetically under the same condition as the wild-type protein. The kinetic parameters for each enzyme were obtained by non-linear least-squares fitting to the initial velocity data.
Mutagenesis and kinetic assays. The L1705I and V1967I single-site mutants as well as the L1705I/V1967I double mutant were made with the QuikChange kit (Stratagene), from the expression construct that covers residues 1476-2233. The mutants were sequenced, expressed in E. coli, and purified following the same protocol as that for thewild-type CT domain. […]

The nature of data set [2]: Kinetic parameters of wild-type and mutant yeast CT (reverse reaction, malonyl-CoA to biotin methyl ester). The note with it: 2.5 μM of the enzyme. The format is biochemical, S. cerevisiae.
Text: as §1
To characterize the functional roles of the conserved residues in the active site, many of them were mutated and the kinetic parameters of the mutants for the reverse reaction, which transfers the carboxyl group of malonyl-CoA to biotin (Table D) were determined. […] Based on the structures of the invention, it is likely that this residue is important for recognizing the carboxyl group of malonyl-CoA, and this is also consistent with the hypothesis that the biotin substrate may be mostly associated with the C domain. Of the charged side chains that interact with the phosphate groups of CoA, mutation of Arg1731 gave rise to a 14-fold increase in the Km for malonyl-CoA (Table D), consistent with the structural observations. On the other hand, mutation of Arg2036 had minimal effects on the enzyme catalysis.
Mutagenesis and kinetic assays. The L1705I and V1967I single-site mutants as well as the L1705I/V1967I double mutant were made with the QuikChange kit (Stratagene), from the expression construct that covers residues 1476-2233. The mutants were sequenced, expressed in E. coli, and purified following the same protocol as that for thewild-type CT domain. The catalytic activity of the CT domain was assayed following protocols described earlier (Guchhait, R. B. et al. (1974) Acetyl coenzyme A carboxylase system from Escherichia coli. Purification and properties of the biotin carboxylase, carboxyltransferase, and carboxyl carrier protein components. J Biol Chem 249, 6633-6645; Zhang et al., 2003). […] The concentration of the malonyl-CoA substrate was kept close to the expected Km, 75 μM for the wild-type enzyme and 750 μM for the mutants. The wild-type enzyme was at 2.5 μM concentration, whereas the mutants were at 20 μM concentration.

Data set [3] concerns the molecule itself. As to the kind of experiment: light scattering in solution (homodimer).

T1 sequence (Q00955 1429-2233): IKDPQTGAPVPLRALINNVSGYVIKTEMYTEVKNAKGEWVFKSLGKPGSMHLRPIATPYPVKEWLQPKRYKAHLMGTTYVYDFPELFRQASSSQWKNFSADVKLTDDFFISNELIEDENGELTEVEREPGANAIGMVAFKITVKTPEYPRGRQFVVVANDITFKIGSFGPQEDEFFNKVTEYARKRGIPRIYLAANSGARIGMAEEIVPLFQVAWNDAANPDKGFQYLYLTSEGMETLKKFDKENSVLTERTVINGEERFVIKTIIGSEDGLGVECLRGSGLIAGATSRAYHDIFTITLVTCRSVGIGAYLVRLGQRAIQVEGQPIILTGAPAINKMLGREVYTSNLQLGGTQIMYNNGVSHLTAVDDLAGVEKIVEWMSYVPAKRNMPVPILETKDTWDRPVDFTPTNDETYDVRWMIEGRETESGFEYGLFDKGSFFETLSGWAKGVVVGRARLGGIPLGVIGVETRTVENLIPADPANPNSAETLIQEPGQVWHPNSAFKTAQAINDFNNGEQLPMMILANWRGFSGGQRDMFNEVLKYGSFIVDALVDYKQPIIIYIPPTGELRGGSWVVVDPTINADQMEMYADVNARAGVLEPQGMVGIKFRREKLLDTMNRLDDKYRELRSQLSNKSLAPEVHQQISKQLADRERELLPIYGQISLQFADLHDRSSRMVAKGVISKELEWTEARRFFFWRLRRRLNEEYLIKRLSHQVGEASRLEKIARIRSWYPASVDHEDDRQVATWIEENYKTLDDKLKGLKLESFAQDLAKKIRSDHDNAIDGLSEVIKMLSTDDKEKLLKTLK
T2 sequence (Q00955 whole entry L1705I/V1967I, form open, the tested form may be a part): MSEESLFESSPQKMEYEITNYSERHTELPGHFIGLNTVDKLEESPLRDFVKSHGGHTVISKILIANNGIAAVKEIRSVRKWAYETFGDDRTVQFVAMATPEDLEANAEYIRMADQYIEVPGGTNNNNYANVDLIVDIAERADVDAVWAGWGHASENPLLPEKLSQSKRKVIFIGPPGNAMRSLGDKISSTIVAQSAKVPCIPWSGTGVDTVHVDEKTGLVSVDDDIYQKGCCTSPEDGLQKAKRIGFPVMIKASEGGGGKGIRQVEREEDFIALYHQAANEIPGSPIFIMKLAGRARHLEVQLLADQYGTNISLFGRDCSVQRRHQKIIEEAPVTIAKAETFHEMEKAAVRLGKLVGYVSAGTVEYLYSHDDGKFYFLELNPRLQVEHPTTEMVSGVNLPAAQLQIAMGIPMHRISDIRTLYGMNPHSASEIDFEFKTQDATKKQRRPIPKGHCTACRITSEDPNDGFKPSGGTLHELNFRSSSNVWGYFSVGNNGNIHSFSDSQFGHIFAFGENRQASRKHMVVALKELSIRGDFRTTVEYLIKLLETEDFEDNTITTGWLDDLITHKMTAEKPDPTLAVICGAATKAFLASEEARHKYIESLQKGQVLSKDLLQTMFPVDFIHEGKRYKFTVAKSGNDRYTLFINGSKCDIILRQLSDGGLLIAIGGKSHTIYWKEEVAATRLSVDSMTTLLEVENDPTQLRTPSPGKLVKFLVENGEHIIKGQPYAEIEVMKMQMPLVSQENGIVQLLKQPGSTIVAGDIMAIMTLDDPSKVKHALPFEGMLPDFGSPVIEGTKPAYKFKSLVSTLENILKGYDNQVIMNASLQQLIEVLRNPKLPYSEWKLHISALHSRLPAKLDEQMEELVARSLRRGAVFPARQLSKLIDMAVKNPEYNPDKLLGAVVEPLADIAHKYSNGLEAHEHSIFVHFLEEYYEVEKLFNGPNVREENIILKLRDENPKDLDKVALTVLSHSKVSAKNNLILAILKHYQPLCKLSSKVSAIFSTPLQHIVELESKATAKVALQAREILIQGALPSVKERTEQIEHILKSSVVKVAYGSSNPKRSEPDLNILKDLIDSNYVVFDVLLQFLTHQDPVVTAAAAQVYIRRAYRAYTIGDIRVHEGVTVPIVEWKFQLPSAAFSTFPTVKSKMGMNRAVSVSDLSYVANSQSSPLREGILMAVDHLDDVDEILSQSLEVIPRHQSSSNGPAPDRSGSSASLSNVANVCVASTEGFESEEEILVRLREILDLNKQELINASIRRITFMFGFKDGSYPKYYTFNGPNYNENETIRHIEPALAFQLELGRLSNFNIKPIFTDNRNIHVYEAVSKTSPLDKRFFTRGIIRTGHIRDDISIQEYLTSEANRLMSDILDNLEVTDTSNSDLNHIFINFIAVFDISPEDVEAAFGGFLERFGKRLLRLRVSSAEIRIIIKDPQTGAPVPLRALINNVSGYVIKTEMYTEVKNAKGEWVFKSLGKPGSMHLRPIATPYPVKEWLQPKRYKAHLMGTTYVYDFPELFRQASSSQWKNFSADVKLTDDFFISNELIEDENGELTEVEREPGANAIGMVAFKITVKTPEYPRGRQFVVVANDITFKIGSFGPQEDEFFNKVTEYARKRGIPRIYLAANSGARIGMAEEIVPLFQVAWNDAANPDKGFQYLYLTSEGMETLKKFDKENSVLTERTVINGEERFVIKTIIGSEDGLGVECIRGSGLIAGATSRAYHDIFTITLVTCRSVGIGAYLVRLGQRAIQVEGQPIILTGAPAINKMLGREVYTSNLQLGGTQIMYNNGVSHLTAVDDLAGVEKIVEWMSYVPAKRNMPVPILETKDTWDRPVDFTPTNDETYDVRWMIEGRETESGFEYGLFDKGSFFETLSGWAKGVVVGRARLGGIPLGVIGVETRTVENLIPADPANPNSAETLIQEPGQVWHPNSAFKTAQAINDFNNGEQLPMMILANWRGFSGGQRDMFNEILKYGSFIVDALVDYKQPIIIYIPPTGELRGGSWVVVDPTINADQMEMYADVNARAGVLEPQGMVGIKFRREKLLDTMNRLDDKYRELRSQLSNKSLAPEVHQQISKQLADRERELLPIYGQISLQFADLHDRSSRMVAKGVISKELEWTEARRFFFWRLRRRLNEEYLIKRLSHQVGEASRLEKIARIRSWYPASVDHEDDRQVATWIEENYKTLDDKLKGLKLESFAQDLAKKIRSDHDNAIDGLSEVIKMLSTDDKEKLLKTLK
Text for CT domain of yeast ACC: The CT domain can catalyze the decarboxylation of malonyl-CoA to produce acetyl-CoA in the presence of biotin methyl ester. Thus, the enzyme kinetic assays monitor the production of acetyl-CoA by coupling it to citrate synthase and malate dehydrogenase, which ultimately lead to the reduction of NAD^+.
Enzyme kinetic assays. The CT domain can catalyze the decarboxylation of malonyl-CoA to produce acetyl-CoA in the presence of biotin methyl ester. The kinetic assays monitored the production of acetyl-CoA by coupling it to citrate synthase and malate dehydronase, which ultimately lead to the reduction of NAD^+ (Guchhait et al., 1974, J. Biol. Chem. 9:6633-6645).

On to `O=C(c1c2ccccc2cc2ccccc12)N1CCC(N2CCC[C@@H](C(=O)N3CCOCC3)C2)CC1` [CP-640186], for which, on CT domain of yeast ACC (versus malonyl-CoA, about 3 μM of enzyme in the reaction buffer, read-out: Ki), the Ki is around 4 µM. The mode of inhibition result at CT domain of yeast ACC (with respect to malonyl-CoA) is listed as “non-competitive”. Moreover, the half-inhibitory concentration (IC50) with mammalian ACC2 is around 0.055 µM.

Regarding `CC(Oc1ccc(Oc2ncc(C(F)(F)F)cc2Cl)cc1)C(=O)SCCNC(=O)CCNC(=O)C(O)C(C)(C)COP(=O)(O)OP(=O)(O)OCC1OC(n2cnc3c(N)ncnc32)C(O)C1OP(=O)(O)O` (stereo not drawn) [CoA ester of haloxyfop], in the data set on ACC, the “potency relative to haloxyfop” value is “more potent inhibitor”.

For `CC(Oc1ccc(Oc2ncc(C(F)(F)F)cc2Cl)cc1)C(=O)O` (stereo not drawn) [haloxyfop], the inhibition constant Ki (at CT domain of yeast ACC; in data set [1]) was around 500 µM throughout.

On to E1994Q, for which, in data set [2], the Michaelis-Menten constant (Km) stood at 109 ± 5 µM and the Vmax is 272 ± 3 ×10^−5 AU/s.

E2026Q: in data set [2], the Km was found to be 218 ± 24 µM and the Vmax is listed as 144 ± 6 ×10^−5 AU/s.

For R1731S, in data set [2], the Michaelis constant (Km) was found to be 909 ± 72 µM and the Vmax is 385 ± 10 ×10^−5 AU/s.

As for R1954S, in data set [2], the Km came to 5100 ± 1200 µM and the Vmax was 39 ± 6 ×10^−5 AU/s.

R2036E: in data set [2], the Km turned out to be 41 ± 4 µM and the Vmax is given as 133 ± 3 ×10^−5 AU/s.

On to Y1738F, for which, in data set [2], the Km stood at 53 ± 6 µM and the Vmax is 152 ± 3 ×10^−5 AU/s.

B1: L1705I/V1967I double mutant of the yeast CT domain (residues 1476-2233) (enzyme)
chain: GSMHLRPIATPYPVKEWLQPKRYKAHLMGTTYVYDFPELFRQASSSQWKNFSADVKLTDDFFISNELIEDENGELTEVEREPGANAIGMVAFKITVKTPEYPRGRQFVVVANDITFKIGSFGPQEDEFFNKVTEYARKRGIPRIYLAANSGARIGMAEEIVPLFQVAWNDAANPDKGFQYLYLTSEGMETLKKFDKENSVLTERTVINGEERFVIKTIIGSEDGLGVECIRGSGLIAGATSRAYHDIFTITLVTCRSVGIGAYLVRLGQRAIQVEGQPIILTGAPAINKMLGREVYTSNLQLGGTQIMYNNGVSHLTAVDDLAGVEKIVEWMSYVPAKRNMPVPILETKDTWDRPVDFTPTNDETYDVRWMIEGRETESGFEYGLFDKGSFFETLSGWAKGVVVGRARLGGIPLGVIGVETRTVENLIPADPANPNSAETLIQEPGQVWHPNSAFKTAQAINDFNNGEQLPMMILANWRGFSGGQRDMFNEILKYGSFIVDALVDYKQPIIIYIPPTGELRGGSWVVVDPTINADQMEMYADVNARAGVLEPQGMVGIKFRREKLLDTMNRLDDKYRELRSQLSNKSLAPEVHQQISKQLADRERELLPIYGQISLQFADLHDRSSRMVAKGVISKELEWTEARRFFFWRLRRRLNEEYLIKRLSHQVGEASRLEKIARIRSWYPASVDHEDDRQVATWIEENYKTLDDKLKGLKLESFAQDLAKKIRSDHDNAIDGLSEVIKMLSTDDKEKLLKTLK
notes: also called mutated yeast CT domain; mutant CT domain; not shown: C-terminal His-tag of the parent pET24d construct
As for B1, in data set [3], the binding result is on record as “binds”.

B2: L1705I (protein)
chain: B1 chain with I492V
modifications: left off: small tags and cut ends
As to B2, in data set [2], the Km is 1340 ± 180 µM and the Vmax is on record as 12 ± 0.3 ×10^−5 AU/s.

The term Ki denotes the equilibrium dissociation constant of an inhibitor or competing ligand from its target. As a reminder, the IC50 is the concentration that gives 50% inhibition. Usually Km stands for the substrate concentration at which the rate is half of its maximum.

Source of the values: US7884189B2, “Carboxyltransferase domain of acetyl-CoA carboxylase” (The Trustees of Columbia University in the City of new York, priority 2003, dated 2011).
